Results published in patent publication US6462173B1, “Inhibitors of phosphoserine and phosphothreonine-proline-specific isomerases” (Max-Planck-Gesellschaft zur Forderung der, priority 1997, dated 2002).

Experiments:
[1] = test system: MPM-2 antigens; test: GST-Pin1 pull-down / depletion of MPM-2 antigens from HeLa cell extracts, MPM-2 immunoblotting; format: binding, human; settings: mitotic HeLa cell extracts, GST fusion proteins
Procedure: (§1) To detect Pin1-binding proteins, either HeLa cells were lysed in or Xenopus extracts were diluted in a buffer (buffer A) containing 50 mM Tris-HCl, pH 8.0, 200 mM NaCl, 100 mM NaF, 1 mM sodium orthovanadate, 10% glycerol, 1% Triton X100, 10 μg/ml aprotinin, 50 μg/ml phenylmethylsulfonyl fluoride and 1 mM DTT. The lysates were preclarified with boiled S. aureus bacteria (CalBiochem) and then incubated with 10 μl of agarose beads containing various GST-Pin1 proteins or control GST for 2 h at 4° C. The precipitated proteins were washed 5 times in the same buffer and subjected to immunoblotting analysis. Immunoprecipitation and immunoblotting analysis using MPM-2 antibody (Davis et al. 1983), which was kindly provided by J. Kuang, Pin1 antibodies (Lu et al., 1996, kindly provided by M. White or newly generated), anti-phospho.Tyr antibody (UBI), anti-Cdc25C (Ogg, et al., 1994) (from H. Piwnica-Worms and Santa Cruz Biotechnology), anti-Cdc27, anti-Plk1 (Zymed), anti-Cdc2 (Solomon, M. J., M. Glotzer, T. H. Lee, M. Philippe and M. W. Kirschner. Cell 63:1013-1024 (1991), anti-human Myt1, anti-human cyclin B1 and anti-Xenopus cyclin B were performed, as described previously in Lu and Hunter, 1995; Lu et al., 1996).
To determine whether GST-Pin1 can deplete MPM-2 antigens and to estimate what concentrations of Pin1 are required to completely deplete MPM-2 antigens, mitotic extracts were incubated with different amounts of GST-Pin1, followed by analyzing MPM-2 antigens remaining in the depleted supernatants. The total cellular Pin1 concentration in HeLa cells was estimated to be about 0.5 μM, based on immunoblotting analysis using anti-Pin1 antibodies with recombinant Pin1 protein as a standard.
To determine if the Pin1 mutants interact with mitotic phosphoproteins, GST-Pin1, -Pin1^R68,69A and -Pin1^H59A fusion proteins were incubated with interphase or mitotic HeLa cell extracts and associated proteins subjected to MPM-2 immunoblotting analysis. […] A few proteins including the most strongly reacting p55 band could still be recognized. […] Thus, mutating the residues that are implicated in binding either the substrate's putative phosphate group or the substrate's Pro residue abolish the ability of Pin1 to bind MPM-2 antigens.

[2] = test system: Cdc25, Cdc27; test: Binding of GST-Pin1 mutants to Cdc25 or Cdc27
Procedure: as §1
Several known mitotic regulators such as cyclin B, Cdc25, Myt1, Plk1 and Cdc27 are phosphorylated at mitosis. […]

[3] = target: T1, mitotic GST-Cdc25 (Xenopus laevis, UniProt P30309); test: Cdc25 activity assay (activation of cyclin B/Cdc2, H1 kinase); format: biochemical; settings: 0.67 μM protein, 1 μM mitotic Cdc25
T1 construct: made in house
T1 sequence (P30309 1-550): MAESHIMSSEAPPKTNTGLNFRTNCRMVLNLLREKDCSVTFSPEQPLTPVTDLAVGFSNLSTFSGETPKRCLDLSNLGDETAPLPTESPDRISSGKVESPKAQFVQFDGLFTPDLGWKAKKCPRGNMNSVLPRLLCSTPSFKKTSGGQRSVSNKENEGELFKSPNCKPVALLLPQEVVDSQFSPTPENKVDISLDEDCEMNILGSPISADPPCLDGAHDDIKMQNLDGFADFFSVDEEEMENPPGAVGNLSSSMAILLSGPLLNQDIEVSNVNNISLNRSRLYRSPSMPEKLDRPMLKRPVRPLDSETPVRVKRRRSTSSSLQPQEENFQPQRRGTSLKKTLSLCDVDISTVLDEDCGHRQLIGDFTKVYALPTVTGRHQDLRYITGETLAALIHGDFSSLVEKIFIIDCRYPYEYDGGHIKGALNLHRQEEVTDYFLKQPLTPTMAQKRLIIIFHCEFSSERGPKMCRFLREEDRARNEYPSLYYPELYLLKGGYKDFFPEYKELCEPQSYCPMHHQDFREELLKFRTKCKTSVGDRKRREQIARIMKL
Procedure: Cdc2 was assayed using histone H1 as a substrate, as previously described in Murray, 1991; Lu and Hunter, (1995).
A subthreshold concentration of GST cyclin B (10 μg) was added to 1 ml of Xenopus interphase extract for thirty min at room temperature (Solomon, M. J., M. Glotzer, T. H. Lee, M. Philippe and M. W. Kirschner, Cell 63:1013-1024 (1990). This was diluted 8 fold in XB+3 mM DTT, rotated for 1 h with 3 ml of GST agarose beads, washed 3 times in XBIP (XB+500 mM NaCl and 1% NP40+2 mM DTT), washed 2 times (once overnight) in EB (80 mM β glycerol phosphate, 15 mM EGTA, 15 mM MgCl2)+2 mM DTT, 500 mM NaCl and 1% NP40, and finally twice with EB+10 mM DTT. These Cdc25 assay beads were stored at 4° C. for up to 1 month. Mitotic GST-Cdc25 was purified by incubating 22 μg of GST-Cdc25, in a Xenopus mitotic extract for 30 min at 23° C., this was diluted 8 fold in XB and rotated with 50 μl of glutathione-Agarose beads (Sigma) for 1 hr at 4° C. The beads were washed 5 times in XB-IP, twice in XB+2 mM DTT and eluted in 25 μl XB+2 mM reduced GSH. The final concentration of Mitotic GST-Cdc25 was 0.36 mg/ml. […] Phosphoimager analysis of the H1 kinase assays were quantified by the Molecular Dynamics ImageQuant 3.3 software. […] The most reproducible way to quantify the Cdc25 activity in this assay was by determining the endpoint dilution of Cdc25 which could activate Cdc2. […]

[4] = target: T2, Pin1 (Homo sapiens, UniProt Q13526); test: Precipitation with GST-Pin1 beads of synthesized phosphoproteins incubated with interphase and mitotic Xenopus extracts; format: binding; parameters: key: +: a week but above background interaction; ++: readily detectable interaction; +++: strong interaction; settings: mitotic Xenopus extracts
T2 construct: fusion protein containing full length Pin1 was bacterially expressed, purified; made in house
Procedure: The binding between Pin1 and all selected mitotic phosphoproteins was assayed by incubating synthesized proteins with interphase and mitotic Xenopus extracts, followed by precipitation with GST-Pin1beads. The Pin1 interactions with those proteins indicated with * were also confirmed by GST-Pin1 pull-down assay from endogenous interphase and mitotic HeLa cell extracts. +, a week but above background interaction; ++, readily detectable interaction; +++, strong interaction.
The mitotic phosphoproteins were translated in vitro using the TNT coupled transcription/translation kit (Promega) in a total volume of 10 μl in the presence of 8 μCi [^35S]methionine (1000 Ci/mmol) for 2 h at 30° C. They were then incubated in xenopus interphase and mitotic extracts as described (Stukenberg et al., 1997). These incubated clones were precipitated by Pin1 beads as described below. The Xenopus Mos and Weel clones were a kind gift of M. Murakami, G, F. Woude and J. Cooper; the Xenopus Cdc25 clone was a generous gift of W. Dunphy, T3 and T3S2 Cdc25 mutants were kindly provided by J. Maller (Izumi and Maller, 1993).
as §1
To gain a sense of the generality of the interaction between Pin1 and mitotic phosphoproteins and to confirm the Pin1 interaction with target proteins is indeed mediated by phosphorylation, the ability of Pin1 to bind other known mitotic phosphoproteins and a set of mitotic phosphoproteins identified by a systematic phosphoprotein screen (Stukenberg et al., Curr Biol 7:338-348 (1997). Proteins synthesized in vitro were phosphorylated in a cell cycle specific manner by incubating them in either Xenopus interphace or mitotic extracts. These labeled protein were subsequently incubated with GST-Pin1 beads that were extensively washed and the bound proteins analyzed by SDS-PAGE. To validate this method, Cdc25 was first tested. Again, the mitotically phosphorylated form of in vitro translated Cdc25 could be precipitated by GST-Pin1 beads. However, Cdc25 was not recognized by Pin1 if it was incubated in interphase extracts. […] Out of the 13 mitotic phosphoproteins examined, Pin1 bound 10 in a mitosis and phosphorylation-dependent manner (summarized in Table 1), including Weel, MP75 and MP110, MP75 and MP110 are Xenopus proteins related to microtubule-associated protein E-MAP-115 and the fission yeast G2 transcription factor Cdc5, respectively.

[5] = target: T2, Pin1; test: Confirmation of interaction between Pin1 and predicted Pin1 substrates; settings: Pin1 binding confirmed in vitro (SC35 inferred from colocalization)
Procedure: On the basis of amino acid preferences deduced in the 6 positions surrounding the pS-P motif for optimal Pin1 binding, a weighted screening of the SWISS-PROT sequence database. Protein sequence database screening was performed with the program INDOVINATOR, using an entropy-based weighing technique to score for relative information content at each amino acid position flanking the pS/pT-P motif with the quantitative peptide library results, which are shown qualitatively in Table 3. […] Many of these proteins are involved in regulation of the cell cycle, cytoskeletal/spindle structure, DNA replication, transcription or RNA processing (Table 4).
Several of these predicted proteins, such as Rab4, Cdc25 and NIMA, undergo mitosis-specific phosphorylation (R. Heald and F. McKeon, Cell 61:579 (1990); E. Bailly, et al., Nature 350:715 (1991); A. Blangy, et al., Cell 83:1159 (1995): J. Kuang, et al., Mol. Biol. Cell 5:135 (1994); X. S. Ye, et al., EMBO J. 14:986 (1995)). Cdc25 and NIMA also binds to Pin1 in a phosphorylation-dependent manner, as described herein. Other proteins identified in this search, however, had not been previously suspected of interacting with Pin1; therefore, a few were further investigated as example cases. […] Thus, Pin1 binds a wide functional range of mitotic phosphoproteins.

[6] = target: T2, Pin1; test: Pin1 precipitation from interphase and mitotic HeLa extracts probed with antibodies to known mitotic phosphoproteins; format: binding
Procedure: as §1
Several known mitotic regulators such as cyclin B, Cdc25, Myt1, Plk1 and Cdc27 are phosphorylated at mitosis. To identify at least a few of the many Pin1 binding proteins, Pin1-binding proteins were precipitated from HeLa cells, or Xenopus extracts and probed with antibodies specific for known mitotic phosphoproteins. As shown previously, levels of Plk1 and cyclin B1 increased at mitosis, whereas similar amounts of Cdc25C were present in interphase and mitotic HeLa cells. […] Similarly, only the mitotic, but not the interphase form of Xenopus Cdc27 was precipitated by Pin1.

[7] = test system: phosphorylated and unphosphorylated peptide substrates; AEPF, AAPF; test: PPIase activity of site-directed Pin1 mutants and parvulin; format: biochemical
Description: To test these predictions from the model, site-directed Pin1 mutants were generated and their PPIase activity assayed as described herein and in K. P. Lu, S. D. Hanes, T. Hunter, Nature 380:544 (1996); K. P. Lu and T. Hunter, Cell 81:413 (1995).
Site-directed mutations of Pin1 were introduced using PCR-based techniques and verified by DNA sequencing. The corresponding mutant proteins were expressed and purified using the same procedures as those described for wild-type Pin1. PPIase activity was measured, as described previously (Lu et al., 1996), with the exception that the absorbance of p-nitroaniline (at 395 nM) was followed every second for 2-10 min. and data were analyzed offline using a kinetic computer program written by G. Tucker-Kellogg in the C.

T2 sequence (Q13526 whole entry, the tested form may be a part): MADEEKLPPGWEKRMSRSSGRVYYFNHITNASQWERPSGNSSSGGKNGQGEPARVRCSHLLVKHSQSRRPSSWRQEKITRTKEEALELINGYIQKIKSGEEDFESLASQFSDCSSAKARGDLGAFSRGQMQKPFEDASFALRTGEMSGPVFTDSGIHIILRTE

Molecule: Pin1^H59A: Pin1 mutant with Ala substitution at His-59
- binding of MPM-2 antigens [1]: significantly reduced compared to the wild-type protein
- interaction with Cdc25 or Cdc27 [2]: neither mutant Pin1^R68,69A nor Pin1^H59A interacted with Cdc25 or Cdc27

Molecule: Pin1^R68,69A: Pin1 mutant with Ala substitutions at Arg68 and Arg69
- binding of MPM-2 antigens [1]: significantly reduced compared to the wild-type protein
- interaction with Cdc25 or Cdc27 [2]: neither mutant Pin1^R68,69A nor Pin1^H59A interacted with Cdc25 or Cdc27
- effect on Cdc25 activity [3]: neither the mutant Pin1^R68,69A at the same concentration (0.67 μM), or BSA at a 25 fold higher concentration (15 μM) had a significant inhibitory effect on Cdc25 activity

Molecule: Plk1: Polo-like kinase, mitotic phosphoprotein
- Interaction with Pin1, Mitotic [4]: +++
- Binding Confirmed [5]: Yes
- precipitation by Pin1 [6]: bound selectively only to the mitotically hyperphosphorylated form

B1: Cdc25C: cell cycle regulatory protein, predicted Pin1 substrate; human Cdc25C in HeLa extracts (protein)
chain: STELFSSTREEGSSGSGPSFRSNQRKMLNLLLERDTSFTVCPDVPRTPVGKFLGDSANLSILSGGTPKRCLDLSNLSSGEITATQLTTSADLDETGHLDSSGLQEVHLAGMNHDQHLMKCSPAQLLCSTPNGLDRGHRKRDAMCSSSANKENDNGNLVDSEMKYLGSPITTVPKLDKNPNLGEDQAEEISDELMEFSLKDQEAKVSRSGLYRSPSMPENLNRPRLKQVEKFKDNTIPDKVKKKYFSGQGKLRKGLCLKKTVSLCDITITQMLEEDSNQGHLIGDFSKVCALPTVSGKHQDLKYVNPETVAALLSGKFQGLIEKFYVIDCRYPYEYLGGHIQGALNLYSQEELFNFFLKKPIVPLDTQKRIIIVFHCEFSSERGPRMCRCLREEDRSLNQYPALYYPELYILKGGYRDFFPEYMELCEPQSYCPMHHQDHKTELLRCRSQSKVQEGERQLREQIALLVKDMSP
- Binding Confirmed [5]: Yes
- precipitation by Pin1 [6]: bound selectively only to the mitotically hyperphosphorylated form

B2: Parvulin: prototype of the Pin1 family of PPIases, R68 and R69 replaced by Glu (protein, UniProt P0A9L5 2-93, looked up)
Peptidyl-prolyl cis-trans …: AKTAAALHILVKEEKLALDLLEQIKNGADFGKLAKKHSICPSGKRGGDLGEFRQGQMVPAFDKVVFSCPVLEPTGPLHTQFGYHIIKVLYRN
- isomerization of pS-P peptidyl bonds ([7]; phosphorylated peptide): failed to catalyze the isomerization of pS-P peptidyl bonds
- catalytic activity for the unphosphorylated peptide substrate ([7]; unphosphorylated peptide): very effective in catalyzing the P isomerization of the unphosphorylated peptide
